How the values were obtained:
[1] = target: the molecule itself; assay: SEC-MALS; Superdex 200 Increase 10/300 GL, 20 mM Tris, 150 mM NaCl, 1 mM DTT, pH 8.0, ~10°C; no divalent cations; injected at 0.45-5 mg/ml; monomer to dimer
[2] = target: the molecule itself; assay: dynamic light scattering; 0.5 mg/ml in 20 mM Tris, 150 mM NaCl, 1 mM DTT, 10 mM CHAPS, pH 8.0, 37°C; no divalent cations (5 mM MgCl2 or 5 mM CaCl2 gave no change); higher order oligomers

Row | Protein | stoichiometry N [1] | binding result [2]
1 | human MRS2 amino terminal domain, MRS2_(58–333) (domain or fragment, UniProt Q9HD23 58-333, looked up, Cloned into pET-28a by NdeI and XhoI; also called MRS2 NTD; NTD; source: E. coli BL21 (DE3), purified (nickel-NTA, thrombin cleavage, SEC S200); not shown: His6, N-terminal, cleaved) DRLRVAGEVHRFRTSDVSQATLASVAPVFTVTKFDKQGNVTSFERKKTELYQELGLQARDLRFQHVMSITVRNNRIIMRMEYLKAVITPECLLILDYRNLNLEQWLFRELPSQLSGEGQLVTYPLPFEFRAIEALLQYWINTLQGKLSILQPLILETLDALVDPKHSSVDRSKLHILLQNGKSLSELETDIKIFKESILEILDEEELLEELCVSKWSDPQVFEKSSAGIDHAEEMELLLENYYRLADDLSNAARELRVLIDDSQSIIFINLDSHRN | 2 | 
2 | MRS2_(58–333) D216A/D220A (domain or fragment, human, UniProt Q9HD23 58-333, looked up, also called D216A/D220A MRS2 NTD double mutant; not shown: His6, N-terminal, cleaved) DRLRVAGEVHRFRTSDVSQATLASVAPVFTVTKFDKQGNVTSFERKKTELYQELGLQARDLRFQHVMSITVRNNRIIMRMEYLKAVITPECLLILDYRNLNLEQWLFRELPSQLSGEGQLVTYPLPFEFRAIEALLQYWINTLQGKLSILQPLILETLAALVAPKHSSVDRSKLHILLQNGKSLSELETDIKIFKESILEILDEEELLEELCVSKWSDPQVFEKSSAGIDHAEEMELLLENYYRLADDLSNAARELRVLIDDSQSIIFINLDSHRN | 2 | 
3 | full-length human MRS2 excluding the mitochondrial targeting sequence, MRS2_(58–443) (natural protein, UniProt Q9HD23 58-443, looked up, in CHAPS micelles in the assay; also called full-length MRS2; source: E. coli BL21 (DE3), purified as the NTD with 10 mM CHAPS in elution and SEC buffers; not shown: His6, N-terminal, cleaved) DRLRVAGEVHRFRTSDVSQATLASVAPVFTVTKFDKQGNVTSFERKKTELYQELGLQARDLRFQHVMSITVRNNRIIMRMEYLKAVITPECLLILDYRNLNLEQWLFRELPSQLSGEGQLVTYPLPFEFRAIEALLQYWINTLQGKLSILQPLILETLDALVDPKHSSVDRSKLHILLQNGKSLSELETDIKIFKESILEILDEEELLEELCVSKWSDPQVFEKSSAGIDHAEEMELLLENYYRLADDLSNAARELRVLIDDSQSIIFINLDSHRNVMMRLNLQLTMGTFSLSLFGLMGVAFGMNLESSLEEDHRIFWLITGIMFMGSGLIWRRLLSFLGRQLEAPLPPMMASLPKKTLLADRSMELKNSLRLDGLGSGRSILTNR |  | binds

Source: publication PMC9909464, “The human MRS2 magnesium-binding domain is a regulatory feedback switch for channel activity” (Life Science Alliance, 2023)
